# Experimental data reported in the supplement of paper PMC11908140.
# B1: library; numbered along this chain (parent)
# chain: MRKPRAAVGSGHRKQAASQEGRQKHAKNNSQAKPSACDGLARQPEEVVLQASVSSYHLFRDVAEVTAFRGSLLSWYDQEKRDLPWRRRAEDEMDLDRRAYAVWVSEVMLQQTQVATVINYYTGWMQKWPTLQDLASASLEEVNQLWAGLGYYSRGRRLQEGARKVVEELGGHMPRTAETLQQLLPGVGRYTAGAIASIAFGQATGVVDGNVARVLCRVRAIGADPSSTLVSQQLWGLAQQLVDPARPGDFNQAAMELGATVCTPQRPLCSQCPVESLCRARQRVEQEQLLASGSLSGSPDVEECAPNTGQCHLCLPPSEPWDQTLGVVNFPRKASRKPPREESSATCVLEQPGALGAQILLVQRPNSGLLAGLWEFPSVTWEPSEQLQRKALLQELQRWAGPLPATHLRHLGEVVHTFSHIKLTYQVYGLALEGQTPVTTVPPGARWLTQEEFHTAAVSTAMKKVFRVYQGQQPGTCMGSKRSQVSSPCSRKKPRMGQQVLDNFFRSHISTDAHSLNSAAQ
# Variants of: B1
# Assay: 8OG:A repair function score (normalized; synonymous = 0, nonsense = -1) (normalized log-likelihood score); higher = more repair activity (WT-like)
# Conditions: with 8OG:A DNA repair reporter (GFP) in HEK-293 MUTYH KO cells
# Outline: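 Lentiviral MUTYH cDNA NNN codon-scan libraries in HEK-293 MUTYH knockout cells (10 pg/ml doxycycline) were co-transfected with an 8OG:A GFP repair reporter plus mCherry. At 72 h, viable mCherry+ cells were sorted into GFP+ (repair) and GFP− bins, three replicates per tile, then tile amplicons were sequenced. Per-tile Rosace fitness scores became a normalized repair function score anchored on synonymous and nonsense distributions. Synonymous medians were set to 0 and nonsense to -1; variants under 300 counts per million at the start were removed.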
row,Variant,8OG:A repair function score
1,MRKPRAAVGSGHRKQAASQEGRQKHAKNNSQAKPSACDGLARQPEEVVLQASVSSYHLFRDVAEVTAFRGSLLSWYDQEKRDLPWRRRAEDEMDLDRRAYAVWVSEVMLQQTQVATVINYYTGWMQKWPTLQDLASASLEEVNQLWAGLGYYSRGRRLQEGARKVVEELGGHMPRTAETLQQLLPGVGRYTAGAIASIAFGQATGVVDGNVARVLCRVRAIGADPSSTLVSQQLWGLAQQLVDPARPGDFNQAAMELGATVCTPQRPLCSQCPVESLCRARQRVEQEQLLASGSLSGSPDVEECAPNTGQCHLCLPPSEPWDQTLGVVNFPRKASRKPPREESSATCVLEQPGALGAQILLVQRPNSGLLAGLWEFPSVTWEPSEQLQRKALLQELQRSAGPLPATHLRHLGEVVHTFSHIKLTYQVYGLALEGQTPVTTVPPGARWLTQEEFHTAAVSTAMKKVFRVYQGQQPGTCMGSKRSQVSSPCSRKKPRMGQQVLDNFFRSHISTDAHSLNSAAQ [W399S],-0.232
2,MRKPRAAVGSGHRKQAASQEGRQKHAKNNSQAKPSACDGLARQPEEVVLQASVSSYHLFRDVAEVTAFRGSLLSWYDQEKRDLPWRRRAEDEMDLDRRAYAVWVSEVMLQQTQVATVINYYTGWMQKWPTLQDLASASLEEVNQLWAGLGYYSRGRRLQEGARKVVEELGGHMPRTAETLQQLLPGVGRYTAGAIASIAFGQATGVVDGNVARVLCRVRAIGADPSSTLVSQQLWGLAQQLVDPARPGDFNQAAMELGATVCTPQRPLCSQCPVESLCRARQRVEQEQLLASGSLSGSPDVEECAPNTGQCHLCLPPSEPWDQTLGVVNFPRKASRKPPREESSATCVLEQPGALGAQILLVQRPNSGLLAGLWEFPSVTWEPSEQLQRKALLQELQRVAGPLPATHLRHLGEVVHTFSHIKLTYQVYGLALEGQTPVTTVPPGARWLTQEEFHTAAVSTAMKKVFRVYQGQQPGTCMGSKRSQVSSPCSRKKPRMGQQVLDNFFRSHISTDAHSLNSAAQ [W399V],-0.167
3,MRKPRAAVGSGHRKQAASQEGRQKHAKNNSQAKPSACDGLARQPEEVVLQASVSSYHLFRDVAEVTAFRGSLLSWYDQEKRDLPWRRRAEDEMDLDRRAYAVWVSEVMLQQTQVATVINYYTGWMQKWPTLQDLASASLEEVNQLWAGLGYYSRGRRLQEGARKVVEELGGHMPRTAETLQQLLPGVGRYTAGAIASIAFGQATGVVDGNVARVLCRVRAIGADPSSTLVSQQLWGLAQQLVDPARPGDFNQAAMELGATVCTPQRPLCSQCPVESLCRARQRVEQEQLLASGSLSGSPDVEECAPNTGQCHLCLPPSEPWDQTLGVVNFPRKASRKPPREESSATCVLEQPGALGAQILLVQRPNSGLLAGLWEFPSVTWEPSEQLQRKALLQELQRNAGPLPATHLRHLGEVVHTFSHIKLTYQVYGLALEGQTPVTTVPPGARWLTQEEFHTAAVSTAMKKVFRVYQGQQPGTCMGSKRSQVSSPCSRKKPRMGQQVLDNFFRSHISTDAHSLNSAAQ [W399N],-0.463
4,MRKPRAAVGSGHRKQAASQEGRQKHAKNNSQAKPSACDGLARQPEEVVLQASVSSYHLFRDVAEVTAFRGSLLSWYDQEKRDLPWRRRAEDEMDLDRRAYAVWVSEVMLQQTQVATVINYYTGWMQKWPTLQDLASASLEEVNQLWAGLGYYSRGRRLQEGARKVVEELGGHMPRTAETLQQLLPGVGRYTAGAIASIAFGQATGVVDGNVARVLCRVRAIGADPSSTLVSQQLWGLAQQLVDPARPGDFNQAAMELGATVCTPQRPLCSQCPVESLCRARQRVEQEQLLASGSLSGSPDVEECAPNTGQCHLCLPPSEPWDQTLGVVNFPRKASRKPPREESSATCVLEQPGALGAQILLVQRPNSGLLAGLWEFPSVTWEPSEQLQRKALLQELQRPAGPLPATHLRHLGEVVHTFSHIKLTYQVYGLALEGQTPVTTVPPGARWLTQEEFHTAAVSTAMKKVFRVYQGQQPGTCMGSKRSQVSSPCSRKKPRMGQQVLDNFFRSHISTDAHSLNSAAQ [W399P],-0.724
5,MRKPRAAVGSGHRKQAASQEGRQKHAKNNSQAKPSACDGLARQPEEVVLQASVSSYHLFRDVAEVTAFRGSLLSWYDQEKRDLPWRRRAEDEMDLDRRAYAVWVSEVMLQQTQVATVINYYTGWMQKWPTLQDLASASLEEVNQLWAGLGYYSRGRRLQEGARKVVEELGGHMPRTAETLQQLLPGVGRYTAGAIASIAFGQATGVVDGNVARVLCRVRAIGADPSSTLVSQQLWGLAQQLVDPARPGDFNQAAMELGATVCTPQRPLCSQCPVESLCRARQRVEQEQLLASGSLSGSPDVEECAPNTGQCHLCLPPSEPWDQTLGVVNFPRKASRKPPREESSATCVLEQPGALGAQILLVQRPNSGLLAGLWEFPSVTWEPSEQLQRKALLQELQRTAGPLPATHLRHLGEVVHTFSHIKLTYQVYGLALEGQTPVTTVPPGARWLTQEEFHTAAVSTAMKKVFRVYQGQQPGTCMGSKRSQVSSPCSRKKPRMGQQVLDNFFRSHISTDAHSLNSAAQ [W399T],-0.296
6,MRKPRAAVGSGHRKQAASQEGRQKHAKNNSQAKPSACDGLARQPEEVVLQASVSSYHLFRDVAEVTAFRGSLLSWYDQEKRDLPWRRRAEDEMDLDRRAYAVWVSEVMLQQTQVATVINYYTGWMQKWPTLQDLASASLEEVNQLWAGLGYYSRGRRLQEGARKVVEELGGHMPRTAETLQQLLPGVGRYTAGAIASIAFGQATGVVDGNVARVLCRVRAIGADPSSTLVSQQLWGLAQQLVDPARPGDFNQAAMELGATVCTPQRPLCSQCPVESLCRARQRVEQEQLLASGSLSGSPDVEECAPNTGQCHLCLPPSEPWDQTLGVVNFPRKASRKPPREESSATCVLEQPGALGAQILLVQRPNSGLLAGLWEFPSVTWEPSEQLQRKALLQELQRRAGPLPATHLRHLGEVVHTFSHIKLTYQVYGLALEGQTPVTTVPPGARWLTQEEFHTAAVSTAMKKVFRVYQGQQPGTCMGSKRSQVSSPCSRKKPRMGQQVLDNFFRSHISTDAHSLNSAAQ [W399R],-0.289
